Data on 2 molecules can be found in publication PMC10759339, “Expression of NELL2/NICOL-ROS1 lumicrine signaling-related molecules in the human male reproductive tract” (Reproductive Biology and Endocrinology : RB&E, 2024).

Assay [1] has as its target NICOL (Mus musculus) (UniProt Q3UR78). The conditions noted are these: cited from earlier work.
Assay [2] has as its target T1, C-terminally 6×His-tagged recombinant human NELL2 protein (human, UniProt Q99435 22-816).
T1 construct: Neural EGF-like like 2 (NELL2), human; also called Neural EGF-like like 2
T1 sequence (looked up): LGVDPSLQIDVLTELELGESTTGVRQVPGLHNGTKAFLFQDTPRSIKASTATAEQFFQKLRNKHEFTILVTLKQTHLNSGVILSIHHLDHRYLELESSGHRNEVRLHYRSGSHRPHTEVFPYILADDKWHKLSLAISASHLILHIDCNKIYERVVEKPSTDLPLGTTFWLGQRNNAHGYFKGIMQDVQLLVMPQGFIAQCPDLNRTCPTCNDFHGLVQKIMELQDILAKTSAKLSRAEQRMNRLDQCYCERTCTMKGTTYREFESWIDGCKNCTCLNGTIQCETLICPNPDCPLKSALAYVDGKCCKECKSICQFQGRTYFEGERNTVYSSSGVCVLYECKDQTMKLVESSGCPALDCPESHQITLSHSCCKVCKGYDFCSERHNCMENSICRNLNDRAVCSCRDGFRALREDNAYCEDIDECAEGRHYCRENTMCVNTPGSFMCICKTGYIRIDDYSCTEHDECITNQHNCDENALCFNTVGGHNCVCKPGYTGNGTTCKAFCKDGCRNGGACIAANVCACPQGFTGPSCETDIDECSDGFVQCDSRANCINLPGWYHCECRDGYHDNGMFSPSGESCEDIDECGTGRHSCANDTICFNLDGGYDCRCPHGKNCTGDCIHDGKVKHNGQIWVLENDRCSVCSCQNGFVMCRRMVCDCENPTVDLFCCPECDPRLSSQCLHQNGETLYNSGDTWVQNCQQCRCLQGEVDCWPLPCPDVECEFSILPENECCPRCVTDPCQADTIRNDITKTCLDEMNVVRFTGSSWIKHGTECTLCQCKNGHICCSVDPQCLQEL
Put plainly: SPR; purified human NELL2 immobilised on a series S sensor chip CM5 as ligand; purified human NICOL in PBS as analyte at increasing concentration; Biacore T200. The conditions noted are these: both partners purified.

NICOL (Mus musculus), sequence (Q3UR78 29-90): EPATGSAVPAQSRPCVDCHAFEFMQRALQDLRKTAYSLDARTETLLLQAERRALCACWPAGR

The Kd is the free concentration of one partner at which half of the binding sites on the other are occupied at equilibrium, for simple one-to-one binding. With NELL2 (from UniProt Q61220), the Kd in assay [1] is 87 nM.

B1: C-terminally 6×His-tagged human NICOL protein (ligand, UniProt Q5BLP8 35-95, looked up)
chain: EPAGSAVPAQSRPCVDCHAFEFMQRALQDLRKTACSLDARTETLLLQAERRALCACWPAGH
notes: also called C4orf48
Broadly, the koff is the first-order rate constant of dissociation. Usually kon stands for the rate constant with which the complex forms. Consider B1, for which, in assay [2], the Kd amounted to 110 nM, the koff worked out at 0.00098 s⁻¹ and the kon came out at 9100 M⁻¹ s⁻¹.
